# Results from US8841085 (KOREA INSTITUTE OF SCIENCE AND TECHNOLOGY, dated 2014).
# Where two headings read alike, the source gives them in different places.
# T1: MMP-7
# T1 sequence (P09237 95-267, species assumed, looked up): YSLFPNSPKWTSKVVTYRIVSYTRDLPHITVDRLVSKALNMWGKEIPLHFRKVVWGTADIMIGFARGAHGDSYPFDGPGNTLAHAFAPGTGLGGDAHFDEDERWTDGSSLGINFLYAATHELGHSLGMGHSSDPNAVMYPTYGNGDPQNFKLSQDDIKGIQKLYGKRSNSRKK
# Experiments:
# Assay in all cases: cell-based or functional assay
# MMP-2 [1] = target: MMP-2
# MMP-3 [2] = target: MMP-3
# MMP-7 [3] = target: T1, MMP-7
# MMP-9 [4] = target: MMP-9
# MMP-13 [5] = target: MMP-13
# MMP-2 [6] = target: MMP-2; remark: listed apart in the source
# MMP-3 [7] = target: MMP-3; remark: listed apart in the source
# MMP-7 [8] = target: T1, MMP-7; remark: listed apart in the source
# MMP-9 [9] = target: MMP-9; remark: listed apart in the source
# MMP-13 [10] = target: MMP-13; remark: listed apart in the source
# MMP-2 [11] = target: MMP-2; remark: listed apart in the source
# MMP-3 [12] = target: MMP-3; remark: listed apart in the source
# MMP-7 [13] = target: T1, MMP-7; remark: listed apart in the source
# MMP-9 [14] = target: MMP-9; remark: listed apart in the source
# MMP-13 [15] = target: MMP-13; remark: listed apart in the source
# MMP-2 [16] = target: MMP-2; remark: listed apart in the source
# MMP-3 [17] = target: MMP-3; remark: listed apart in the source
# MMP-7 [18] = target: T1, MMP-7; remark: listed apart in the source
# MMP-9 [19] = target: MMP-9; remark: listed apart in the source
# MMP-13 [20] = target: MMP-13; remark: listed apart in the source
binder,measurement,setting,value
{Cy5.5}-GVPLSLTMGK(BHQ3)GG-{glycol chitosan‑cholanic acid nanoparticle} (not fully specified; printed as Cy5.5-Gly-Val-Pro-Leu-Ser-Leu-Thr-Met-Gly-Lys(BHQ3)-Gly-Gly-COOH),"fluorescent intensity (FI) recovered after 60 minutes, fold",MMP-2 [1],1.8 times
same,"fluorescent intensity (FI) recovered after 60 minutes, fold",MMP-3 [2],3.6 times
same,"fluorescent intensity (FI) recovered after 60 minutes, fold",MMP-7 [3],3.9 times
same,"fluorescent intensity (FI) recovered after 60 minutes, fold",MMP-9 [4],1.3 times
same,"fluorescent intensity (FI) recovered after 60 minutes, fold",MMP-13 [5],4.8 times
same,fluorescent intensity (FI) at 0 min,MMP-2 [6],271
same,fluorescent intensity (FI) at 10 min,MMP-2 [6],245
same,fluorescent intensity (FI) at 20 min,MMP-2 [6],350
same,fluorescent intensity (FI) at 30 min,MMP-2 [6],280
same,fluorescent intensity (FI) at 40 min,MMP-2 [6],335
same,fluorescent intensity (FI) at 50 min,MMP-2 [6],426
same,fluorescent intensity (FI) at 60 min,MMP-2 [6],494
same,fluorescent intensity (FI) at 0 min,MMP-3 [7],336
same,fluorescent intensity (FI) at 10 min,MMP-3 [7],226
same,fluorescent intensity (FI) at 20 min,MMP-3 [7],408
same,fluorescent intensity (FI) at 30 min,MMP-3 [7],843
same,fluorescent intensity (FI) at 40 min,MMP-3 [7],946
same,fluorescent intensity (FI) at 50 min,MMP-3 [7],1070
same,fluorescent intensity (FI) at 60 min,MMP-3 [7],1230
same,fluorescent intensity (FI) at 0 min,MMP-7 [8],328
same,fluorescent intensity (FI) at 10 min,MMP-7 [8],653
same,fluorescent intensity (FI) at 20 min,MMP-7 [8],993
same,fluorescent intensity (FI) at 30 min,MMP-7 [8],1160
same,fluorescent intensity (FI) at 40 min,MMP-7 [8],1250
same,fluorescent intensity (FI) at 50 min,MMP-7 [8],1310
same,fluorescent intensity (FI) at 60 min,MMP-7 [8],1280
same,fluorescent intensity (FI) at 0 min,MMP-9 [9],182
same,fluorescent intensity (FI) at 10 min,MMP-9 [9],186
same,fluorescent intensity (FI) at 20 min,MMP-9 [9],186
same,fluorescent intensity (FI) at 30 min,MMP-9 [9],187
same,fluorescent intensity (FI) at 40 min,MMP-9 [9],239
same,fluorescent intensity (FI) at 50 min,MMP-9 [9],233
same,fluorescent intensity (FI) at 60 min,MMP-9 [9],248
same,fluorescent intensity (FI) at 0 min,MMP-13 [10],287
same,fluorescent intensity (FI) at 10 min,MMP-13 [10],724
same,fluorescent intensity (FI) at 20 min,MMP-13 [10],1060
same,fluorescent intensity (FI) at 30 min,MMP-13 [10],1230
same,fluorescent intensity (FI) at 40 min,MMP-13 [10],1350
same,fluorescent intensity (FI) at 50 min,MMP-13 [10],1360
same,fluorescent intensity (FI) at 60 min,MMP-13 [10],1370
{Cy5.5}-GPLGMRGLGK(BHQ3)GG-{glycol chitosan‑cholanic acid nanoparticle} (not fully specified; printed as Cy5.5-Gly-Pro-Leu-Gly-Met-Arg-Gly-Leu-Gly-Lys(BHQ3)-Gly-Gly-COOH),"fluorescent intensity (FI) recovered after 60 minutes, fold",MMP-2 [1],3.7 times
same,"fluorescent intensity (FI) recovered after 60 minutes, fold",MMP-3 [2],2.4 times
same,"fluorescent intensity (FI) recovered after 60 minutes, fold",MMP-7 [3],0.8 times
same,"fluorescent intensity (FI) recovered after 60 minutes, fold",MMP-9 [4],1.3 times
same,"fluorescent intensity (FI) recovered after 60 minutes, fold",MMP-13 [5],4.3 times
same,fluorescent intensity (FI) at 0 min,MMP-2 [11],77.4
same,fluorescent intensity (FI) at 10 min,MMP-2 [11],91
same,fluorescent intensity (FI) at 20 min,MMP-2 [11],125
same,fluorescent intensity (FI) at 30 min,MMP-2 [11],151
same,fluorescent intensity (FI) at 40 min,MMP-2 [11],189
same,fluorescent intensity (FI) at 50 min,MMP-2 [11],238
same,fluorescent intensity (FI) at 60 min,MMP-2 [11],287
same,fluorescent intensity (FI) at 0 min,MMP-3 [12],102
same,fluorescent intensity (FI) at 10 min,MMP-3 [12],128
same,fluorescent intensity (FI) at 20 min,MMP-3 [12],143
same,fluorescent intensity (FI) at 30 min,MMP-3 [12],174
same,fluorescent intensity (FI) at 40 min,MMP-3 [12],200
same,fluorescent intensity (FI) at 50 min,MMP-3 [12],217
same,fluorescent intensity (FI) at 60 min,MMP-3 [12],249
same,fluorescent intensity (FI) at 0 min,MMP-7 [13],104
same,fluorescent intensity (FI) at 10 min,MMP-7 [13],90.1
same,fluorescent intensity (FI) at 20 min,MMP-7 [13],87.6
same,fluorescent intensity (FI) at 30 min,MMP-7 [13],87
same,fluorescent intensity (FI) at 40 min,MMP-7 [13],91.5
same,fluorescent intensity (FI) at 50 min,MMP-7 [13],94.9
same,fluorescent intensity (FI) at 60 min,MMP-7 [13],86.3
same,fluorescent intensity (FI) at 0 min,MMP-9 [14],101
same,fluorescent intensity (FI) at 10 min,MMP-9 [14],106
same,fluorescent intensity (FI) at 20 min,MMP-9 [14],109
same,fluorescent intensity (FI) at 30 min,MMP-9 [14],114
same,fluorescent intensity (FI) at 40 min,MMP-9 [14],128
same,fluorescent intensity (FI) at 50 min,MMP-9 [14],130
same,fluorescent intensity (FI) at 60 min,MMP-9 [14],133
same,fluorescent intensity (FI) at 0 min,MMP-13 [15],101
same,fluorescent intensity (FI) at 10 min,MMP-13 [15],131
same,fluorescent intensity (FI) at 20 min,MMP-13 [15],166
same,fluorescent intensity (FI) at 30 min,MMP-13 [15],234
same,fluorescent intensity (FI) at 40 min,MMP-13 [15],281
same,fluorescent intensity (FI) at 50 min,MMP-13 [15],355
same,fluorescent intensity (FI) at 60 min,MMP-13 [15],456
{Cy5.5}-GPLGVRGK(BHQ3)GG-{glycol chitosan‑cholanic acid nanoparticle} (not fully specified; printed as Cy5.5-Gly-Pro-Leu-Gly-Val-Arg-Gly-Lys(BHQ3)-Gly-Gly-COOH),"fluorescent intensity (FI) recovered after 60 minutes, fold",MMP-2 [1],9.7 times
same,"fluorescent intensity (FI) recovered after 60 minutes, fold",MMP-3 [2],2 times
same,"fluorescent intensity (FI) recovered after 60 minutes, fold",MMP-7 [3],1 times
same,"fluorescent intensity (FI) recovered after 60 minutes, fold",MMP-9 [4],9.2 times
same,"fluorescent intensity (FI) recovered after 60 minutes, fold",MMP-13 [5],12.3 times
same,fluorescent intensity (FI) at 0 min,MMP-2 [16],379
same,fluorescent intensity (FI) at 10 min,MMP-2 [16],952
same,fluorescent intensity (FI) at 20 min,MMP-2 [16],1720
same,fluorescent intensity (FI) at 30 min,MMP-2 [16],2390
same,fluorescent intensity (FI) at 40 min,MMP-2 [16],2920
same,fluorescent intensity (FI) at 50 min,MMP-2 [16],3210
same,fluorescent intensity (FI) at 60 min,MMP-2 [16],3660
same,fluorescent intensity (FI) at 0 min,MMP-3 [17],307
same,fluorescent intensity (FI) at 10 min,MMP-3 [17],285
same,fluorescent intensity (FI) at 20 min,MMP-3 [17],363
same,fluorescent intensity (FI) at 30 min,MMP-3 [17],421
same,fluorescent intensity (FI) at 40 min,MMP-3 [17],506
same,fluorescent intensity (FI) at 50 min,MMP-3 [17],537
same,fluorescent intensity (FI) at 60 min,MMP-3 [17],630
same,fluorescent intensity (FI) at 0 min,MMP-7 [18],278
same,fluorescent intensity (FI) at 10 min,MMP-7 [18],288
same,fluorescent intensity (FI) at 20 min,MMP-7 [18],287
same,fluorescent intensity (FI) at 30 min,MMP-7 [18],290
same,fluorescent intensity (FI) at 40 min,MMP-7 [18],294
same,fluorescent intensity (FI) at 50 min,MMP-7 [18],300
same,fluorescent intensity (FI) at 60 min,MMP-7 [18],302
same,fluorescent intensity (FI) at 0 min,MMP-9 [19],350
same,fluorescent intensity (FI) at 10 min,MMP-9 [19],680
same,fluorescent intensity (FI) at 20 min,MMP-9 [19],1350
same,fluorescent intensity (FI) at 30 min,MMP-9 [19],2010
same,fluorescent intensity (FI) at 40 min,MMP-9 [19],2250
same,fluorescent intensity (FI) at 50 min,MMP-9 [19],2850
same,fluorescent intensity (FI) at 60 min,MMP-9 [19],3220
same,fluorescent intensity (FI) at 0 min,MMP-13 [20],665
same,fluorescent intensity (FI) at 10 min,MMP-13 [20],1930
same,fluorescent intensity (FI) at 20 min,MMP-13 [20],3930
same,fluorescent intensity (FI) at 30 min,MMP-13 [20],5290
same,fluorescent intensity (FI) at 40 min,MMP-13 [20],6510
same,fluorescent intensity (FI) at 50 min,MMP-13 [20],7610
same,fluorescent intensity (FI) at 60 min,MMP-13 [20],8180
